# Experimental data from patent US20080199514A1 (BURNHAM INSTITUTE, published 2008).
# T1: Lck phosphopeptide (ARLIEDNEpYTAAREG)
# T1 chain: ARLIEDNEYTAAREG
# B1: full length Hemagglutinin (HA) tagged LYP having W620 (protein)
# chain: MDQREILQKFLDEAQSKKITKEEFANEFLKLKRQSTKYKADKTYPTTVAEKPKNIKKNRYKDILPYDYSRVELSLITSDEDSSYINANFIKGVYGPKAYIATQGPLSTTLLDFWRMIWEYSVLIIVMACMEYEMGKKKCERYWAEPGEMQLEFGPFSVSCEAEKRKSDYIIRTLKVKFNSETRTIYQFHYKNWPDHDVPSSIDPILELIWDVRCYQEDDSVPICIHCSAGCGRTGVICAIDYTWMLLKDGIIPENFSVFSLIREMRTQRPSLVQTQEQYELVYNAVLELFKRQMDVIRDKHSGTESQAKHCIPEKNHTLQADSYSPNLPKSTTKAAKMMNQQRTKMEIKESSSFDFRTSEISAKEELVLHPAKSSTSFDFLELNYSFDKNADTTMKWQTKAFPIVGEPLQKHQSLDLGSLLFEGCSNSKPVNAAGRYFNSKVPITRTKSTPFELIQQRETKEVDSKENFSYLESQPHDSCFVEMQAQKVMHVSSAELNYSLPYDSKHQIRNASNVKHHDSSALGVYSYIPLVENPYFSSWPPSGTSSKMSLDLPEKQDGTVFPSSLLPTSSTSLFSYYNSHDSLSLNSPTNISSLLNQESAVLATAPRIDDEIPPPLPVWTPESFIVVEEAGEFSPNVPKSLSSAVKVKIGTSLEWGGTSEPKKFDDSVILRPSKSVKLRSPKSELHQDRSSPPPPLPERTLESFFLADEDCMQAQSIETYSTSYPDTMENSTSSKQTLKTPGKSFTRSKSLKILRNMKKSICNSCPPNKPAESVQSNNSSSFLNFGFANRFSKPKGPRNPPPTWNI
# Molecular target: T1, Lck phosphopeptide (ARLIEDNEpYTAAREG)
protein,measurement,value
B1,Dephosphorylation of an Lck phosphopeptide by immunoprecipitated HA-tagged LYP; specific activity relative to LYP*R620,"LYP*W620 displayed a 57.2% (±9.8%, n=5) higher specific activity when corrected for amount of protein"
